Laboratory results published in US20220298258A1 (Bristol-Myers Squibb, published 2022).
One block for each molecule: values may come before it.

What was measured:
[1] = target: Human PSGL-1 (P-Selectin Glycoprotein Ligand 1) on primary human T cells / PBMC lymphocytes (human) (UniProt Q14242); assay: flow cytometry; inhibition of VISTA dextramer binding to activated human CD4+ T cells, pH 6.0
[2] = target: T1, fluorescently-conjugated human VISTA dextramer (a streptavidin dextramer loaded with monobiotinylated … (human, UniProt Q9H7M9 33-194, monobiotinylated (avi-tagged in Example 6); loaded on a fluorescently-conjugated streptavidin dextramer); assay: as above
T1 construct: Multimeric reagent: many biotinylated VISTA molecules on a streptavidin dextramer; also called VISTA dextramers; dextramer loaded with recombinant human avi-tagged VISTA
T1 sequence (looked up): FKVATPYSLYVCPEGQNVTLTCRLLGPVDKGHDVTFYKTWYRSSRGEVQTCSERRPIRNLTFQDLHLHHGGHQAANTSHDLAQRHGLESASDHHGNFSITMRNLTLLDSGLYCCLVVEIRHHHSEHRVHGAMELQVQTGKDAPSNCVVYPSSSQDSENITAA
Method: The ability of soluble PSGL-1 to disrupt VISTA dextramer binding to T cells was assessed by incubating activated T cells with fluorescently-conjugated VISTA dextramers (a streptavidin dextramer loaded with a sub-optimal molar ratio of monobiotinylated recombinant human VISTA molecules) in Hanks's Balanced Salt Solution at pH 6.0 and in the presence of titrated concentrations of a control (i.e., non-VISTA or PSGL-1 specific) antibody (dots), recombinant human PSGL-1-Fc fusion protein (triangles), or recombinant human P-selectin (R&D Systems, diamonds). The recombinant human PSGL-1 Fc fusion molecule was obtained from R&D Systems Catalog No. 3345-PS, and comprises the PSGL-1 ECD sequence shown in SEQ ID NO: 18, comprising positions 42-295 of a human PSGL-1 sequence of accession number AA50061 coupled at its C-terminal to an IEGRMD linker sequence (SEQ ID NO: 19) followed by amino acids P100 to K330 of human IgG1. After incubation, the binding of the VISTA dextramer to the T cells was measured by flow cytometry. IC50 values were calculated via nonlinear regression in Prism software (GraphPad). The results, which are shown in FIG. 3 and Table 1, indicate that PSGL-1 and P-selectin inhibit binding of VISTA to the activated CD4+ T cells in a dose dependent manner at acidic pH.

IC50 [1]: 0.101 µM
Molecule: recombinant human P-selectin (R&D Systems) (from UniProt P16109 42-771) (receptor)

IC50 [2]: 0.0205 µM
B1: recombinant human PSGL-1-Fc fusion protein (R&D Systems Catalog No. 3345-PS) (Fc fusion)
chain: QATEYEYLDYDFLPETEPPEMLRNSTDTTPLTGPGTPESTTVEPAARRSTGLDAGGAVTELTTELANMGNLSTDSAAMEIQTTQPAATEAQTTPLAATEAQTTRLTATEAQTTPLAATEAQTTPPAATEAQTTQPTGLEAQTTAPAAMEAQTTAPAAMEAQTTPPAAMEAQTTQTTAMEAQTTAPEATEAQTTQPTATEAQTTPLAAMEALSTEPSATEALSMEPTTKRGLFIPFSVSSVTHKGIPMAASNLSVIEGRMD
notes: Bought reagent; also called hPSGL-1-Fc; humPSGL-1-Fc; not shown: human IgG1, amino acids P100 to K330
